B1: literature ZfQQR site hybrid (LDNA/LRNA) (DNA:RNA)
DNA: TCACTGGGGAAGAAGAATCCTC
RNA: GAGGAUUCUUCUUCCCCAGUGA
B2: SELEX consensus hybrid (CDNA/CRNA) (DNA:RNA)
DNA: TCACTGGTCGGTGGGAATCCTC
RNA: GAGGAUUCCCACCGACCAGUGA

Molecular target: GST-ZfQQR (zinc finger ZfQQR) (artificial)
Experiment: filter; 25 mM Tris pH 8.0, 100 mM KCl, 20 uM ZnSO4, 2 mM DTT, poly dI-dC, room temperature; protein called zinc finger ZfQQR, GST fusion is the purified form described
Details: tags: N-terminal GST (pGEX-4T-1); label: radioactive
Experimental: To confirm that the consensus sequence obtained after five rounds of SELEX is bound by the zinc finger, a constant KD was measured using the nitrocellulose filter binding method. The assay was performed with radioactively labeled substrates described in the literature (LDNA, LRNA) and a consensus sequence (CDNA, CRNA) see FIG. 16:
Binding reaction contained 2 nM of labeled substrate, 2 μg poly dI-dC as a nonspecific competitor, 25 mM Tris pH 8.0, 100 mM KCl, 20 μM ZnSO₄, 2 mM DTT. The binding reaction was incubated for 30 min at room temperature and then filtered immediately through a nitrocellulose filter and washed with 8 volumes of reaction buffer of 25 mM Tris pH 8.0, 100 mM KCl, 20 μM ZnSO₄, 2 mM DTT. Measurement of the intensity of the signal coming from the retention of radioactively labeled substrate was made on an audioradiogram of the nitrocellulose filter using a Typhoon Trio scanner and ImageQuant TL software.

GST-ZfQQR (zinc finger ZfQQR) (artificial), sequence (chain, as listed by the source): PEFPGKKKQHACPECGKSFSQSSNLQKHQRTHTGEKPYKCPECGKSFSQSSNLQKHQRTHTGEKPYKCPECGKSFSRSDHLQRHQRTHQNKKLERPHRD

Row | Binder | Kd [nM]
1 | B1 | 188
2 | B2 | 155
